B1: NUPR1 (recombinant, purified) (natural protein, UniProt O60356 1-82, looked up)
chain: MATFPPATSAPQQPPGPEDEDSSLDESDLYSLAHSYLGGGGRKGRTKREAAANTNRPSPGGHERKLVTKLQNSERKKRGARR
notes: Nuclear Protein 1 (NUPR1), described as an intrinsically disordered protein of 82 amino acids with two tyrosines (Tyr30, Tyr36); also called Nuclear Protein 1; rNUPR1; source: expressed and purified as described (12)
B2: importin-α3 (residues 1–520), recombinant (domain or fragment, UniProt O00629 1-520, looked up)
chain: MADNEKLDNQRLKNFKNKGRDLETMRRQRNEVVVELRKNKRDEHLLKRRNVPHEDICEDSDIDGDYRVQNTSLEAIVQNASSDNQGIQLSAVQAARKLLSSDRNPPIDDLIKSGILPILVHCLERDDNPSLQFEAAWALTNIASGTSEQTQAVVQSNAVPLFLRLLHSPHQNVCEQAVWALGNIIGDGPQCRDYVISLGVVKPLLSFISPSIPITFLRNVTWVMVNLCRHKDPPPPMETIQEILPALCVLIHHTDVNILVDTVWALSYLTDAGNEQIQMVIDSGIVPHLVPLLSHQEVKVQTAALRAVGNIVTGTDEQTQVVLNCDALSHFPALLTHPKEKINKEAVWFLSNITAGNQQQVQAVIDANLVPMIIHLLDKGDFGTQKEAAWAISNLTISGRKDQVAYLIQQNVIPPFCNLLTVKDAQVVQVVLDGLSNILKMAEDEAETIGNLIEECGGLEKIEQLQNHENEDIYKLAYEIIDQFFSSDDIDEDPSLVPEAIQGGTFGFNSSANVPTEGFQ
notes: importin-α3 (KPNA4), residues 1–520, codon-optimized synthetic vector (Nzytech); called a 58 kDa protein with 6 tryptophans; also called KPNA4; importin-alpha3; source: final Superdex G200 16/60

Legend:
[1] = biological target: B2; assay: ITC; as a3 with ZZW-115 kept constant at 100 μM during the titration; analysed as an apparent quasibinary system and as an exact ternary system; 25°C; settings: both partners purified
[2] = biological target: B2; assay: ITC; importin-α3 (100–110 μM) in the syringe, NUPR1 (5–10 μM) in the calorimetric cell, Tris 50 mM pH 8, 25°C; single binding site model (1:1); settings: both partners purified
[3] = biological target: B1; assay: ITC; as a3 with ZZW-115 kept constant at 100 μM during the titration; analysed as an apparent quasibinary system and as an exact ternary system; 25°C; settings: both partners purified
[4] = biological target: T1, NUPR1 (recombinant, purified) (UniProt O60356 1-82); assay: ITC; 25°C, with ZZW-115
T1 chain: B1 chain

[5] = biological target: B1; assay: ITC; importin-α3 (100–110 μM) in the syringe, NUPR1 (5–10 μM) in the calorimetric cell, Tris 50 mM pH 8, 25°C; single binding site model (1:1); settings: both partners purified

B1
Kd [1]: 35 µM
Ka [2]: 690000 M⁻¹
Kd [2]: 1.4 µM

B2
fold reduction in affinity with 100 μM ZZW-115 (ternary equilibrium analysis) [3]: 21 fold
Ka [4]: 28000 M⁻¹
dH [5]: -13.7 kcal/mol

Reference: PMC7526551 (JCI Insight, 2020)
